Experimental data: US20020123056A1

Molecular target: PKB-sub peptide (GSK3 consensus peptide) …
Assay: cell-based or functional assay

GST-SGK2 fusion protein (human SGK2 with N-terminal Glutathione S-transferase tag, expressed in Hi5 insect cells) (from UniProt Q9HBY8 1-367) (enzyme)
kinase activity, 32P incorporation; GST-SGK2 from Hi5 cells treated with Calyculin A: 92500 CCPM1
kinase activity, 32P incorporation; GST-SGK2 from Hi5 cells treated with Microcysteine: 217 CCPM1
kinase activity, 32P incorporation; GST-SGK2 from Hi5 cells treated with Okadaic Acid: 132000 CCPM1
kinase activity, 32P incorporation; GST-SGK2 from untreated Hi5 cells: 979 CCPM1
